# Measurements from the supplement of paper PMC9112550, “Optimization of the antimicrobial peptide Bac7 by deep mutational scanning” (BMC Biology, 2022).
# Test system: Escherichia coli TOP10
# Assay: shrunken log2 fold change of peptide-encoding DNA abundance (4.5 h post-induction vs induction); higher = less antimicrobial activity (less host growth inhibition)
# Conditions: time post-induction: 4.5 h; library: site-saturation at positions 5, 18, 19, 20
# 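Also: peptides expressed intracellularly from a pBAD plasmid library in pooled LB shake-flask culture, induced with 0.3% L-arabinose, DNA abundance read by NGS, three biological replicates, DESeq2 with apeglm shrinkage.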
row,Sequence,shrunken log2 fold change
1,RRIRSRPPRLPRPRPRPLRTPRP,0.787
2,RRIRRRPPRLPRPRPRPSWKPRP,0.16
3,RRIRWRPPRLPRPRPRPPAWPRP,0.794
4,RRIRLRPPRLPRPRPRPVWKPRP,-0.0133
5,RRIRKRPPRLPRPRPRPVICPRP,0.115
6,RRIRDRPPRLPRPRPRPNHIPRP,-1
7,RRIRSRPPRLPRPRPRPMHVPRP,-0.00553
8,RRIRYRPPRLPRPRPRPMVLPRP,-0.0934
9,RRIRLRPPRLPRPRPRPYIFPRP,-0.549
10,RRIRMRPPRLPRPRPRPKELPRP,0.642
11,RRIRVRPPRLPRPRPRPTADPRP,0.27
12,RRIRKRPPRLPRPRPRPHAPPRP,0.485
13,RRIRERPPRLPRPRPRPEVEPRP,-0.0864
14,RRIRLRPPRLPRPRPRPMMTPRP,-0.042
15,RRIRCRPPRLPRPRPRPCQSPRP,0.00299
16,RRIRPRPPRLPRPRPRPFVQPRP,-0.0832
17,RRIRWRPPRLPRPRPRPHWEPRP,0.323
18,RRIRTRPPRLPRPRPRPDVKPRP,-0.521
19,RRIRNRPPRLPRPRPRPSGFPRP,0.0185
20,RRIRVRPPRLPRPRPRPGIAPRP,0.0106
21,RRIRQRPPRLPRPRPRPNLYPRP,-0.647
22,RRIRARPPRLPRPRPRPCTEPRP,-0.0123
23,RRIRGRPPRLPRPRPRPEWCPRP,1.19
24,RRIRQRPPRLPRPRPRPVVLPRP,-0.227
25,RRIRDRPPRLPRPRPRPCVHPRP,0.412

row,Sequence,shrunken log2 fold change
1,RRIRLRPPRLPRPRPRPNEEPRP,0.00826
2,RRIRWRPPRLPRPRPRPWIQPRP,0.0861
3,RRIRRRPPRLPRPRPRPYAAPRP,0.395
4,RRIRCRPPRLPRPRPRPHPYPRP,-0.296
5,RRIRHRPPRLPRPRPRPEPMPRP,0.134
6,RRIRERPPRLPRPRPRPNPLPRP,-0.0696
7,RRIRARPPRLPRPRPRPTIEPRP,0.225
8,RRIRGRPPRLPRPRPRPFPGPRP,0.0889
9,RRIRVRPPRLPRPRPRPTDIPRP,-0.402
10,RRIRDRPPRLPRPRPRPKRIPRP,0.133
11,RRIRDRPPRLPRPRPRPQFYPRP,-0.129
12,RRIRSRPPRLPRPRPRPHGTPRP,-0.161
13,RRIRNRPPRLPRPRPRPPEGPRP,1.62
14,RRIRDRPPRLPRPRPRPAVCPRP,1.19
15,RRIRGRPPRLPRPRPRPSRPPRP,0.624
16,RRIRPRPPRLPRPRPRPRIGPRP,0.0981
17,RRIRMRPPRLPRPRPRPYQCPRP,-0.118
18,RRIRDRPPRLPRPRPRPSAFPRP,0.124
19,RRIRMRPPRLPRPRPRPHRNPRP,-0.181
20,RRIRDRPPRLPRPRPRPFGAPRP,0.191
21,RRIRSRPPRLPRPRPRPPLGPRP,0.399
22,RRIRARPPRLPRPRPRPRYEPRP,0.0403
23,RRIRHRPPRLPRPRPRPPFMPRP,0.0707
24,RRIRLRPPRLPRPRPRPAAKPRP,0.602
25,RRIRARPPRLPRPRPRPYIIPRP,-0.445

row,Sequence,shrunken log2 fold change
1,RRIRYRPPRLPRPRPRPRYHPRP,-0.922
2,RRIRCRPPRLPRPRPRPEHTPRP,-0.0466
3,RRIRTRPPRLPRPRPRPWHGPRP,-0.111
4,RRIRCRPPRLPRPRPRPSRSPRP,-0.136
5,RRIRFRPPRLPRPRPRPYKVPRP,-0.614
6,RRIRMRPPRLPRPRPRPCSYPRP,-0.0368
7,RRIRDRPPRLPRPRPRPLSVPRP,-0.0465
8,RRIRHRPPRLPRPRPRPTHPPRP,0.155
9,RRIRDRPPRLPRPRPRPADPPRP,-0.155
10,RRIRSRPPRLPRPRPRPHCQPRP,-0.159
11,RRIRQRPPRLPRPRPRPLMQPRP,0.0776
12,RRIRSRPPRLPRPRPRPLKVPRP,-0.0229
13,RRIRLRPPRLPRPRPRPHYEPRP,-0.762
14,RRIRYRPPRLPRPRPRPYTIPRP,-0.0225
15,RRIRYRPPRLPRPRPRPEFLPRP,-0.252
16,RRIRHRPPRLPRPRPRPSMSPRP,-0.0246
17,RRIRDRPPRLPRPRPRPSQQPRP,-0.123
18,RRIRMRPPRLPRPRPRPTIHPRP,-0.134
19,RRIRERPPRLPRPRPRPTDIPRP,-0.0479
20,RRIRKRPPRLPRPRPRPLPMPRP,0.562
21,RRIRGRPPRLPRPRPRPRLIPRP,0.166
22,RRIRIRPPRLPRPRPRPMGAPRP,-0.341
23,RRIRARPPRLPRPRPRPWKQPRP,0.00355
24,RRIRTRPPRLPRPRPRPDWRPRP,0.0352
25,RRIRQRPPRLPRPRPRPEVRPRP,0.0665

row,Sequence,shrunken log2 fold change
1,RRIRYRPPRLPRPRPRPQNYPRP,-0.81
2,RRIRFRPPRLPRPRPRPNYWPRP,-0.221
3,RRIRTRPPRLPRPRPRPHDWPRP,0.213
4,RRIRTRPPRLPRPRPRPTMLPRP,3.82
5,RRIRHRPPRLPRPRPRPKCKPRP,-0.14
6,RRIRTRPPRLPRPRPRPTVRPRP,2.09
7,RRIRRRPPRLPRPRPRPEYSPRP,-0.265
8,RRIRYRPPRLPRPRPRPCDMPRP,-0.01
9,RRIRLRPPRLPRPRPRPVNGPRP,-0.0366
10,RRIRKRPPRLPRPRPRPLGFPRP,0.872
11,RRIRIRPPRLPRPRPRPGGCPRP,0.0544
12,RRIRWRPPRLPRPRPRPNFHPRP,-0.0344
13,RRIRCRPPRLPRPRPRPGDGPRP,0.646
14,RRIRIRPPRLPRPRPRPNNCPRP,-0.0753
15,RRIRSRPPRLPRPRPRPFHTPRP,-0.232
16,RRIRPRPPRLPRPRPRPDHVPRP,-0.474
17,RRIRGRPPRLPRPRPRPLKWPRP,0.367
18,RRIRNRPPRLPRPRPRPHPIPRP,0.033
19,RRIRPRPPRLPRPRPRPFMMPRP,-0.845
20,RRIRDRPPRLPRPRPRPTDHPRP,-0.0425
21,RRIRHRPPRLPRPRPRPCGQPRP,0.015
22,RRIRLRPPRLPRPRPRPATRPRP,0.145
23,RRIRMRPPRLPRPRPRPIPQPRP,0.256
24,RRIRMRPPRLPRPRPRPNVEPRP,0.0231
25,RRIRLRPPRLPRPRPRPRQYPRP,-0.075

row,Sequence,shrunken log2 fold change
1,RRIRARPPRLPRPRPRPVLPPRP,0.286
2,RRIRCRPPRLPRPRPRPTHIPRP,-0.326
3,RRIRARPPRLPRPRPRPGAFPRP,0.454
4,RRIRGRPPRLPRPRPRPHIYPRP,0.0231
5,RRIRDRPPRLPRPRPRPSVYPRP,-0.404
6,RRIRARPPRLPRPRPRPAEGPRP,0.818
7,RRIRFRPPRLPRPRPRPALWPRP,0.625
8,RRIRQRPPRLPRPRPRPSDIPRP,-0.0397
9,RRIRHRPPRLPRPRPRPPIKPRP,-0.16
10,RRIRCRPPRLPRPRPRPPECPRP,0.131
11,RRIRARPPRLPRPRPRPMQAPRP,-0.00917
12,RRIRKRPPRLPRPRPRPCQFPRP,-0.117
13,RRIRYRPPRLPRPRPRPNDYPRP,-0.0969
14,RRIRLRPPRLPRPRPRPYLQPRP,-0.0746
15,RRIRPRPPRLPRPRPRPNDWPRP,0.0287
16,RRIRPRPPRLPRPRPRPWGAPRP,0.738
17,RRIRLRPPRLPRPRPRPQTHPRP,0.0338
18,RRIRNRPPRLPRPRPRPTHQPRP,0.194
19,RRIRARPPRLPRPRPRPCDWPRP,0.353
20,RRIRWRPPRLPRPRPRPFSWPRP,0.0632
21,RRIRSRPPRLPRPRPRPPGKPRP,-0.0498
22,RRIRFRPPRLPRPRPRPGFIPRP,-0.257
23,RRIRPRPPRLPRPRPRPFFQPRP,0.0612
24,RRIRVRPPRLPRPRPRPTTQPRP,0.0531
25,RRIRSRPPRLPRPRPRPMCVPRP,-0.134

row,Sequence,shrunken log2 fold change
1,RRIRVRPPRLPRPRPRPWDWPRP,0.163
2,RRIRQRPPRLPRPRPRPAGQPRP,-0.143
3,RRIRPRPPRLPRPRPRPMLAPRP,0.281
4,RRIRMRPPRLPRPRPRPMIKPRP,-0.262
5,RRIRQRPPRLPRPRPRPRAQPRP,-0.0701
6,RRIRMRPPRLPRPRPRPMGGPRP,0.131
7,RRIRLRPPRLPRPRPRPWSPPRP,-0.303
8,RRIRKRPPRLPRPRPRPPPMPRP,0.826
9,RRIRMRPPRLPRPRPRPFPEPRP,0.562
10,RRIRPRPPRLPRPRPRPPSVPRP,0.321
11,RRIRQRPPRLPRPRPRPPQRPRP,0.655
12,RRIRQRPPRLPRPRPRPMWGPRP,-0.263
13,RRIRRRPPRLPRPRPRPQQAPRP,0.115
14,RRIRIRPPRLPRPRPRPHVNPRP,2.48
15,RRIRTRPPRLPRPRPRPPNMPRP,-0.203
16,RRIRHRPPRLPRPRPRPRRNPRP,-0.104
17,RRIRPRPPRLPRPRPRPNWIPRP,-0.441
18,RRIRNRPPRLPRPRPRPWRPPRP,0.337
19,RRIRNRPPRLPRPRPRPVKAPRP,-0.0518
20,RRIRYRPPRLPRPRPRPRDEPRP,0.047
21,RRIRFRPPRLPRPRPRPDILPRP,-0.119
22,RRIRTRPPRLPRPRPRPKVIPRP,-0.503
23,RRIRFRPPRLPRPRPRPLAQPRP,0.097
24,RRIRLRPPRLPRPRPRPPDHPRP,0.0205
25,RRIRARPPRLPRPRPRPKLYPRP,0.0318
